Primed or numbered codes have the meaning given here. No end group written: not given here. FITC′ = fluorescein isothiocyanate
Target: PEX5 TPR domain (C-terminal cargo-binding TPR domain of human PEX5L) (human, UniProt P50542-1 315-639)
Experiment: fluorescence polarisation

Kd: 250 µM
B1: N-terminal FITC conjugated SAPKIPSWQIPVKSPSPS PEX14 peptide (peptide)
peptide: {FITC′}-SAPKIPSWQIPVKSPSPS

Reference: article doi:10.1101/2023.08.08.552478 (bioRxiv, 2023)
